{
  "source": "patent US20250320281A1",
  "key": {"[1]": {"target": "WT JR-FL gp120 (HIV-1)", "assay": "ELISA, antigen-coated wells"}, "[2]": {"target": "HIV-1 Env of pseudovirus isolate MGRM-G-011 (HIV-1)", "assay": "cell-based or functional assay"}, "[3]": {"target": "HIV-1 92UG024 Env (pseudovirus) (HIV-1)", "assay": "cell-based or functional assay"}, "[4]": {"target": "HIV-1 CMU02 Env (pseudovirus) (HIV-1)", "assay": "cell-based or functional assay"}, "[5]": {"target": "HIV-1 MGRM-D-018 Env (pseudovirus) (HIV-1)", "assay": "cell-based or functional assay"}, "[6]": {"target": "HIV-1 Env of pseudovirus isolate MGRM-G-004 (HIV-1)", "assay": "cell-based or functional assay"}, "[7]": {"target": "HIV-1 MGRM-A-010 Env (pseudovirus) (HIV-1)", "assay": "cell-based or functional assay"}, "[8]": {"target": "HIV-1 Env of pseudovirus isolate MGRM-G-014 (HIV-1)", "assay": "cell-based or functional assay"}, "[9]": {"target": "HIV-1 Env of pseudovirus isolate MGRM-G-017 (HIV-1)", "assay": "cell-based or functional assay"}, "[10]": {"target": "HIV-1 MGRM-C-026 Env (pseudovirus) (HIV-1)", "assay": "cell-based or functional assay"}, "[11]": {"target": "HIV-1 JRCSF Env (pseudovirus) (HIV-1) (UniProt P20871)", "assay": "cell-based or functional assay"}, "[12]": {"target": "HIV-1 Env of pseudovirus isolate MGRM-G-019 (HIV-1)", "assay": "cell-based or functional assay"}, "[13]": {"target": "HIV-1 NL43 Env (pseudovirus) (HIV-1)", "assay": "cell-based or functional assay"}, "[14]": {"target": "HIV-1 Env of pseudovirus isolate MGRM-G-009 (HIV-1)", "assay": "cell-based or functional assay"}, "[15]": {"target": "HIV-1 Env of pseudovirus isolate MGRM-G-016 (HIV-1)", "assay": "cell-based or functional assay"}, "[16]": {"target": "HIV-1 92RW020 Env (pseudovirus) (HIV-1)", "assay": "cell-based or functional assay"}, "[17]": {"target": "HIV-1 MGRM-C-028 Env (pseudovirus) (HIV-1)", "assay": "cell-based or functional assay"}, "[18]": {"target": "HIV-1 Env of pseudovirus isolate MGRM-G-001 (HIV-1)", "assay": "cell-based or functional assay"}, "[19]": {"target": "HIV-1 Env of pseudovirus isolate MGRM-G-013 (HIV-1)", "assay": "cell-based or functional assay"}, "[20]": {"target": "HIV-1 Env of pseudovirus isolate MGRM-G-006 (HIV-1)", "assay": "cell-based or functional assay"}, "[21]": {"target": "HIV-1 93IN905 Env (pseudovirus) (HIV-1)", "assay": "cell-based or functional assay"}, "[22]": {"target": "HIV-1 Env of pseudovirus isolate MGRM-G-015 (HIV-1)", "assay": "cell-based or functional assay"}, "[23]": {"target": "HIV-1 92TH021 Env (pseudovirus) (HIV-1)", "assay": "cell-based or functional assay"}, "[24]": {"target": "HIV-1 MGRM-C-027 Env (pseudovirus) (HIV-1)", "assay": "cell-based or functional assay"}, "[25]": {"target": "HIV-1 Env of pseudovirus isolate MGRM-G-027 (HIV-1)", "assay": "cell-based or functional assay"}, "[26]": {"target": "HIV-1 APV6 Env (pseudovirus) (HIV-1)", "assay": "cell-based or functional assay"}, "[27]": {"target": "HIV-1 94UG103 Env (pseudovirus) (HIV-1)", "assay": "cell-based or functional assay"}, "[28]": {"target": "envelope of aMLV pseudovirus (negative control)", "assay": "cell-based or functional assay"}, "[29]": {"target": "HIV-1 92UG005 Env (pseudovirus) (HIV-1)", "assay": "cell-based or functional assay"}},
  "data": [
    {"substance": "5329_C19 (PGT-136) (antibody)", "values": [
      {"measurement": "EC50", "setting": "[1]", "result": 0.2, "unit": "µg/mL"},
      {"measurement": "IC50 (µg/mL), pseudovirus neutralization", "setting": "[2]", "result": "> 50", "unit": "µg/mL"},
      {"measurement": "IC50 (neutralizing activity, pseudovirus)", "setting": "[3]", "result": 0.0915, "unit": "µg/mL"},
      {"measurement": "IC50 (neutralizing activity, pseudovirus)", "setting": "[4]", "result": "> 10", "unit": "µg/mL"},
      {"measurement": "IC50 (neutralizing activity, pseudovirus)", "setting": "[5]", "result": "> 10", "unit": "µg/mL"},
      {"measurement": "IC50 (µg/mL), pseudovirus neutralization", "setting": "[6]", "result": "> 50", "unit": "µg/mL"},
      {"measurement": "IC50 (neutralizing activity, pseudovirus)", "setting": "[7]", "result": "> 10", "unit": "µg/mL"},
      {"measurement": "IC50 (µg/mL), pseudovirus neutralization", "setting": "[8]", "result": "> 50", "unit": "µg/mL"},
      {"measurement": "IC50 (µg/mL), pseudovirus neutralization", "setting": "[9]", "result": "> 50", "unit": "µg/mL"},
      {"measurement": "IC50 (neutralizing activity, pseudovirus)", "setting": "[10]", "result": 0.0065, "unit": "µg/mL"},
      {"measurement": "IC50 (neutralizing activity, pseudovirus)", "setting": "[11]", "result": "> 10", "unit": "µg/mL"},
      {"measurement": "IC50 (µg/mL), pseudovirus neutralization", "setting": "[12]", "result": 44.3, "unit": "µg/mL"},
      {"measurement": "IC50 (neutralizing activity, pseudovirus)", "setting": "[13]", "result": "> 10", "unit": "µg/mL"},
      {"measurement": "IC50 (µg/mL), pseudovirus neutralization", "setting": "[14]", "result": "> 50", "unit": "µg/mL"},
      {"measurement": "IC50 (µg/mL), pseudovirus neutralization", "setting": "[15]", "result": "> 50", "unit": "µg/mL"},
      {"measurement": "neutralization IC50 (pseudovirus)", "setting": "[16]", "result": 0.738, "unit": "µg/mL"},
      {"measurement": "IC50 (neutralizing activity, pseudovirus)", "setting": "[17]", "result": "> 10", "unit": "µg/mL"},
      {"measurement": "IC50 (µg/mL), pseudovirus neutralization", "setting": "[18]", "result": 8.11, "unit": "µg/mL"},
      {"measurement": "IC50 (µg/mL), pseudovirus neutralization", "setting": "[19]", "result": "> 50", "unit": "µg/mL"},
      {"measurement": "IC50 (µg/mL), pseudovirus neutralization", "setting": "[20]", "result": "> 50", "unit": "µg/mL"},
      {"measurement": "IC50 (neutralizing activity, pseudovirus)", "setting": "[21]", "result": 0.0135, "unit": "µg/mL"},
      {"measurement": "IC50 (µg/mL), pseudovirus neutralization", "setting": "[22]", "result": "> 50", "unit": "µg/mL"},
      {"measurement": "IC50 (neutralizing activity, pseudovirus)", "setting": "[23]", "result": "> 10", "unit": "µg/mL"},
      {"measurement": "IC50 (neutralizing activity, pseudovirus)", "setting": "[24]", "result": "> 10", "unit": "µg/mL"},
      {"measurement": "IC50 (µg/mL), pseudovirus neutralization", "setting": "[25]", "result": 45.2, "unit": "µg/mL"},
      {"measurement": "IC50 (neutralizing activity, pseudovirus)", "setting": "[26]", "result": "> 10", "unit": "µg/mL"},
      {"measurement": "IC50 (neutralizing activity, pseudovirus)", "setting": "[27]", "result": "> 10", "unit": "µg/mL"},
      {"measurement": "IC50 (µg/mL), pseudovirus neutralization", "setting": "[28]", "result": "> 50", "unit": "µg/mL"},
      {"measurement": "IC50 (neutralizing activity, pseudovirus)", "setting": "[29]", "result": "> 10", "unit": "µg/mL"}
    ]}
  ]
}
